Data on one molecule can be found in US20100092994A1.

Square brackets hold non-standard residues; d marks the D form. Ends that are not written are not given here. Hyp = O=C(O)[C@@H]1C[C@@H](O)CN1 Some results are limits rather than exact numbers.

In assay [1] the target is monoclonal antibody derived from clone 11A5 (Anti HP-FGA MAb Clone: 11A5; hybridoma FERM AP-21698). In words: competitive ELISA: free peptide prereacted with antibody supernatant, then added to the solid-phased oxidatively modified peptide. In general terms: ELISA stands for enzyme-linked immunosorbent assay.
In assay [2] the target is monoclonal antibody derived from clone 11G7. The assay is described as above.
Assay [3] has as its target monoclonal antibody derived from clone 11A5 (Anti HP-FGA MAb Clone: 11A5; hybridoma FERM AP-21698). In words: competitive ELISA; reference is the unmodified peptide ESS-HP (SEQ ID NO: 2).
Assay [4] concerns the target monoclonal antibody derived from clone 11G7. Described as above.

A word on the IC50: it is the concentration that inhibits the measured activity by half. A higher IC50 goes with a need for much substance. Take ESSSHH[Hyp]GIAEFPSR [synthetic peptide ESS (SEQ ID NO: 4), ESSSHHP(OH)GIAEFPSR, oxidatively modified FGA partial peptide]: the IC50 in assay [1] and in assay [2] was 0.4 µg/mL in each case. Moreover, the fold of 50% inhibition against ESS-HP (SEQ ID NO: 2) in assay [3] and in assay [4] was over 25 times throughout.
